Laboratory results from patent US20240117018A1.

Experiments:
Assay in all cases: cell-based or functional assay
[1] = molecular target: HIV-1 Env pseudovirus 6480.v4.c25 (HIV-1)
[2] = molecular target: HIV-1 Env pseudovirus P1981_C5_3 (HIV-1)
[3] = molecular target: HIV-1 Env of pseudovirus BF1266.431a (HIV-1)
[4] = molecular target: HIV-1 Env pseudovirus 6811.v7.c18 (HIV-1)
[5] = molecular target: HIV-1 Env pseudovirus BJOX010000.06.2 (HIV-1)
[6] = molecular target: HIV-1 Env pseudovirus BJOX028000.10.3 (HIV-1)
[7] = molecular target: HIV-1 Env of pseudovirus Ce0682_E4 (HIV-1)
[8] = molecular target: HIV-1 Env pseudovirus A07412M1.vrc12 (HIV-1)
[9] = molecular target: HIV-1 Env pseudovirus X1254_c3 (HIV-1)
[10] = molecular target: HIV-1 Env pseudovirus R3265.c06 (HIV-1)
[11] = molecular target: HIV-1 Env of pseudovirus REJO4541.67 (HIV-1)
[12] = molecular target: HIV-1 Env of pseudovirus 1054_07_TC4_1499 (HIV-1)
[13] = molecular target: HIV-1 Env of pseudovirus 3415.v1.c1 (HIV-1)
[14] = molecular target: HIV-1 Env pseudovirus C2101.c01 (HIV-1)
[15] = molecular target: HIV-1 Env pseudovirus Q259.d2.17 (HIV-1)
[16] = molecular target: HIV-1 Env pseudovirus Ce704809221_1B3 (HIV-1)
[17] = molecular target: HIV-1 Env pseudovirus Q461.e2 (HIV-1)
[18] = molecular target: HIV-1 Env pseudovirus 1056_10_TA11_1826 (HIV-1)
[19] = molecular target: HIV-1 Env pseudovirus ZM135M.PL10a (HIV-1)
[20] = molecular target: HIV-1 Env pseudovirus HIV-16055-2.3 (HIV-1)
[21] = molecular target: HIV-1 Env pseudovirus CAP45.2.00.G3 (HIV-1)
[22] = molecular target: HIV-1 Env pseudovirus 1394C9G1(Rev-) (HIV-1)
[23] = molecular target: HIV-1 Env pseudovirus Ce1172_H1 (HIV-1)
[24] = molecular target: HIV-1 Env pseudovirus 6535.3 (HIV-1)

3BNC117 (antibody)
IC50 (Titer in TZM.bl cells) [1]: 0.01 µg/mL
IC80 (Titer in TZM.bl cells) [1]: 0.04 µg/mL
IC50 (Titer in TZM.bl cells) [2]: 0.74 µg/mL
IC80 (Titer in TZM.bl cells) [2]: 3.62 µg/mL
IC50 [3]: 0.03 µg/mL
IC80 [3]: 0.09 µg/mL
IC50 (Titer in TZM.bl cells) [4]: 0.03 µg/mL
IC80 (Titer in TZM.bl cells) [4]: 0.17 µg/mL
IC50 (Titer in TZM.bl cells) [5]: 1.58 µg/mL
IC80 (Titer in TZM.bl cells) [5]: 10.4 µg/mL
IC50 (Titer in TZM.bl cells) [6]: 0.01 µg/mL
IC80 (Titer in TZM.bl cells) [6]: 0.05 µg/mL
IC50 [7]: 0.03 µg/mL
IC80 [7]: 0.15 µg/mL
IC50 (Titer in TZM.bl cells) [8]: 0.02 µg/mL
IC80 (Titer in TZM.bl cells) [8]: 0.1 µg/mL
IC50 (Titer in TZM.bl cells) [9]: 0.08 µg/mL
IC80 (Titer in TZM.bl cells) [9]: 0.27 µg/mL
IC50 (Titer in TZM.bl cells) [10]: 0.48 µg/mL
IC80 (Titer in TZM.bl cells) [10]: 13 µg/mL
IC50 [11]: 0.01 µg/mL
IC80 [11]: 0.05 µg/mL
IC50 [12]: 0.07 µg/mL
IC80 [12]: 0.49 µg/mL
IC50 [13]: 0.17 µg/mL
IC80 [13]: 0.47 µg/mL
IC50 (Titer in TZM.bl cells) [14]: 0.05 µg/mL
IC80 (Titer in TZM.bl cells) [14]: 0.31 µg/mL

8ANC195 (antibody)
IC50 (Titer in TZM.bl cells) [1]: 0.16 µg/mL
IC80 (Titer in TZM.bl cells) [1]: 1.13 µg/mL
IC50 (Titer in TZM.bl cells) [2]: 0.14 µg/mL
IC80 (Titer in TZM.bl cells) [2]: 1.15 µg/mL
IC50 [3]: > 50 µg/mL
IC80 [3]: > 50 µg/mL
IC50 (Titer in TZM.bl cells) [4]: 5.34 µg/mL
IC80 (Titer in TZM.bl cells) [4]: 27.6 µg/mL
IC50 (Titer in TZM.bl cells) [5]: 0.85 µg/mL
IC80 (Titer in TZM.bl cells) [5]: 5.84 µg/mL
IC50 (Titer in TZM.bl cells) [6]: 0.45 µg/mL
IC80 (Titer in TZM.bl cells) [6]: 2.83 µg/mL
IC50 [7]: 0.2 µg/mL
IC80 [7]: 1.29 µg/mL
IC50 (Titer in TZM.bl cells) [8]: 2.25 µg/mL
IC80 (Titer in TZM.bl cells) [8]: 7.49 µg/mL
IC50 (Titer in TZM.bl cells) [9]: 6.95 µg/mL
IC80 (Titer in TZM.bl cells) [9]: 6.95 µg/mL
IC50 (Titer in TZM.bl cells) [10]: 50 µg/mL
IC80 (Titer in TZM.bl cells) [10]: > 50 µg/mL
IC50 [11]: 0.08 µg/mL
IC80 [11]: 0.68 µg/mL
IC50 [12]: 1.02 µg/mL
IC80 [12]: 6.75 µg/mL
IC50 [13]: 17.7 µg/mL
IC80 [13]: 17.7 µg/mL
IC50 (Titer in TZM.bl cells) [14]: 0.48 µg/mL
IC80 (Titer in TZM.bl cells) [14]: 3.54 µg/mL

VRC01 (antibody)
IC50 (Titer in TZM.bl cells) [15]: 0.17 µg/mL
IC80 (Titer in TZM.bl cells) [15]: 0.54 µg/mL
IC50 (Titer in TZM.bl cells) [16]: 0.55 µg/mL
IC80 (Titer in TZM.bl cells) [16]: 2.05 µg/mL
IC50 (Titer in TZM.bl cells) [17]: 0.49 µg/mL
IC80 (Titer in TZM.bl cells) [17]: 1.6 µg/mL
IC50 (Titer in TZM.bl cells) [18]: 0.92 µg/mL
IC80 (Titer in TZM.bl cells) [18]: 3.28 µg/mL
IC50 (Titer in TZM.bl cells) [1]: 0.04 µg/mL
IC80 (Titer in TZM.bl cells) [1]: 0.09 µg/mL
IC50 (Titer in TZM.bl cells) [19]: 0.35 µg/mL
IC80 (Titer in TZM.bl cells) [19]: 2.7 µg/mL
IC50 (Titer in TZM.bl cells) [2]: 0.46 µg/mL
IC80 (Titer in TZM.bl cells) [2]: 1.26 µg/mL
IC50 (Titer in TZM.bl cells) [20]: 0.08 µg/mL
IC80 (Titer in TZM.bl cells) [20]: 0.26 µg/mL
IC50 (Titer in TZM.bl cells) [4]: 0.09 µg/mL
IC80 (Titer in TZM.bl cells) [4]: 0.26 µg/mL
IC80 (Titer in TZM.bl cells) [21]: > 50 µg/mL
IC50 (Titer in TZM.bl cells) [22]: 0.36 µg/mL
IC80 (Titer in TZM.bl cells) [22]: 1.28 µg/mL
IC50 (Titer in TZM.bl cells) [23]: > 10 µg/mL
IC80 (Titer in TZM.bl cells) [23]: > 10 µg/mL
IC50 (Titer in TZM.bl cells) [9]: 0.07 µg/mL
IC80 (Titer in TZM.bl cells) [9]: 0.19 µg/mL
IC50 (Titer in TZM.bl cells) [10]: 0.45 µg/mL
IC80 (Titer in TZM.bl cells) [10]: 1.88 µg/mL
IC50 (Titer in TZM.bl cells) [24]: 0.54 µg/mL
IC80 (Titer in TZM.bl cells) [24]: 2.7 µg/mL
IC50 (Titer in TZM.bl cells) [14]: 0.36 µg/mL
IC80 (Titer in TZM.bl cells) [14]: 1.17 µg/mL

VRC07 (antibody)
IC50 (Titer in TZM.bl cells) [1]: 0.032 µg/mL
IC80 (Titer in TZM.bl cells) [1]: 0.134 µg/mL
IC50 (Titer in TZM.bl cells) [2]: 0.213 µg/mL
IC80 (Titer in TZM.bl cells) [2]: 0.609 µg/mL
IC50 [3]: 0.032 µg/mL
IC80 [3]: 0.117 µg/mL
IC50 (Titer in TZM.bl cells) [4]: 0.093 µg/mL
IC80 (Titer in TZM.bl cells) [4]: 0.435 µg/mL
IC50 (Titer in TZM.bl cells) [5]: 1.06 µg/mL
IC80 (Titer in TZM.bl cells) [5]: 10 µg/mL
IC50 (Titer in TZM.bl cells) [6]: 0.011 µg/mL
IC80 (Titer in TZM.bl cells) [6]: 0.069 µg/mL
IC50 [7]: 0.039 µg/mL
IC80 [7]: 0.239 µg/mL
IC50 (Titer in TZM.bl cells) [8]: 0.11 µg/mL
IC80 (Titer in TZM.bl cells) [8]: 0.353 µg/mL
IC50 (Titer in TZM.bl cells) [9]: 0.041 µg/mL
IC80 (Titer in TZM.bl cells) [9]: 0.2 µg/mL
IC50 [11]: 0.011 µg/mL
IC80 [11]: 0.037 µg/mL
IC50 [12]: 0.239 µg/mL
IC80 [12]: 1.46 µg/mL
IC50 [13]: 0.036 µg/mL
IC80 [13]: 0.152 µg/mL
IC50 (Titer in TZM.bl cells) [14]: 0.238 µg/mL
IC80 (Titer in TZM.bl cells) [14]: 1.4 µg/mL
